Data on twelve molecules can be found in US20070149763A1 (Bristol-Myers Squibb, published 2007).

In test [1] the target is BACE (recombinant human BACE catalytic domain, expressed in CHO cells as BACE-T-IgG, IgG1 removed with thrombin) (human) (UniProt P56817). Put plainly: binding assay without UV light (fluorescence anisotropy); absence of UV light. In general terms: In fluorescence polarisation assays a small probe gives low polarisation when free and higher when bound to something large.
For test [2] the target is unchanged. Put plainly: ITC, 25° C., Dulbecco's PBS. For orientation: ITC needs no label: the signal is the heat of the interaction.
The target is the same in test [3]. Put plainly: ITC, 50 mM NaOAc, pH 4.5, 25° C.
The target is the same in test [4]. Put plainly: ITC, 25° C., 50 mM NaOAc, pH 4.5.
Test [5] has the same target. Put plainly: ITC, Dulbecco's PBS, pH 7.0, 25° C.
Test [6] has the same target. Put plainly: ITC, Dulbecco's PBS, pH 7.1, 25° C.
The target is the same in test [7]. Put plainly: cell-based or functional assay.
Test [8] shares this target. Put plainly: fluorescence anisotropy binding assay.
Test [9] shares this target. Put plainly: fluorescence anisotropy binding assay, pH 4.5; comparison of label positions (X, Y1, Z).
Test [10] has the same target. Put plainly: fluorescence anisotropy, BACE titrated into 10 nM Molecule Y1 with 10 µM OM99-2; reference: without OM99-2.
Test [11] has the same target. Put plainly: fluorescence anisotropy, BACE titrated into 10 nM Molecule Y1, no OM99-2, fit to 1:1 binding (error 2.1556); the text prints this value rounded (57 / 58 nM).
The target is the same in test [12]. Put plainly: fluorescence anisotropy, BACE titrated into 10 nM Molecule Y1 in the presence of 10 µM OM99-2, fit to 1:1 binding (error 1.5032); this table prints 'Kd' without a unit, nM is taken from the concentration axis and the -OM99-2 table.
Test [13] has the same target. Put plainly: ITC, pH 5.3, 37° C., peptide titrated into CHO BACE.
Test [14] shares this target. Put plainly: fluorescence anisotropy competition against Molecule X, pH 4.5.
Test [15] has the same target. Put plainly: fluorescence anisotropy competition against Molecule X, pH 7.1.
The target is the same in test [16]. Put plainly: ITC, pH 5.3, 37° C., peptide titrated into CHO BACE pre-incubated with a 10-fold excess of OM99-2.
The target is the same in test [17]. Put plainly: fluorescence anisotropy competition against 10 nM Molecule X on BACE, pH 7.1, upper panel.
Test [18] has the same target. Put plainly: fluorescence anisotropy competition against Molecule X on BACE, pH 4.5, lower panel; labelled 'Ka(nM)' on the sheet, it is the dissociation constant of the competing ligand; error 337.16; the text prints it rounded (1073 nM).
For test [19] the target is unchanged. Put plainly: fluorescence anisotropy competition against Molecule X on BACE, pH 7.1, upper panel; labelled 'Ka' on the sheet without a unit, it is the dissociation constant of the competing ligand, nM from the axis and the lower table; error 33.456; the text prints it rounded (84 nM).
The target is the same in test [20]. Put plainly: fluorescence anisotropy competition against Molecule Y1, pH 4.5.
Test [21] has the same target. Put plainly: fluorescence anisotropy competition against 10 nM Molecule Y1 on BACE, pH 4.5.
Test [22] shares this target. Put plainly: fluorescence anisotropy competition against Molecule Y1 on BACE, pH 4.5; labelled 'Ka(nM)' on the sheet, it is the dissociation constant of the competing ligand; error 102.58; the text prints 1197 nM.
Test [23] has the same target. Put plainly: fluorescence anisotropy binding assay, pH 4.5.
For test [24] the target is unchanged. Put plainly: fluorescence anisotropy, BACE titrated into 10 nM labeled peptide, pH 4.5, 1:1 model.
Test [25] has the same target. Put plainly: fluorescence anisotropy, BACE titrated into 10 nM labeled peptide, pH 7.1, 1:1 model.
The target is the same in test [26]. Put plainly: fluorescence anisotropy, pH 4.5 (value quoted for the labeled EBP used in the truncation screen).
For test [27], the target named is T1, BACE-1 (T7-BACE1(A14-T454)) (Homo sapiens (Human), UniProt P56817 14-454).
T1 construct: BACE dimer in the asymmetric unit; also called Construct #1
Put plainly: X-ray crystallography, peptide soaked into BACE-1/DPH-153979 co-crystal. Here is the method:
Crystals appeared overnight and grew to their final dimensions (0.4×0.3×0.2 mm) in about two weeks.
Data were collected at 100° K using a Rigaku R-axis II system mounted on a RU-200 rotating anode generator and processed using HKL2000 (Otwinowski et. al., (1997) Methods in Enzymology, Macromolecular Crystallography, Part A; C. W. Carter, Jr. and R. M. Sweet, Eds.; Academic Press: New York, 276:307-326) (Table 6). The structure was determined by molecular replacement using the program EPMR (Kissinger et. al. (1999) Acta Crystallog. Sect. D, 55:484-491) in space group P2₁ with one BACE dimer per asymmetric unit. The starting model used was a BACE dimer (without inhibitor) from a previously determined structure. […] The active site inhibitor DPH-153979 was built into the electron density using the program QUANTA (Accelrys Software, Inc.) and refinement was carried out using the program CNX (Accelrys Software, Inc.). […] Refinement was not carried out past initial building of YPYFI due to ambiguous exosite peptide density.

Where no end group is shown, it is not given here. Alexa488 = Alexa488 fluorophore label

BACE (recombinant human BACE catalytic domain, expressed in CHO cells as BACE-T-IgG, IgG1 removed with thrombin) (human), sequence (P56817 43-460 limits assumed, form in doubt): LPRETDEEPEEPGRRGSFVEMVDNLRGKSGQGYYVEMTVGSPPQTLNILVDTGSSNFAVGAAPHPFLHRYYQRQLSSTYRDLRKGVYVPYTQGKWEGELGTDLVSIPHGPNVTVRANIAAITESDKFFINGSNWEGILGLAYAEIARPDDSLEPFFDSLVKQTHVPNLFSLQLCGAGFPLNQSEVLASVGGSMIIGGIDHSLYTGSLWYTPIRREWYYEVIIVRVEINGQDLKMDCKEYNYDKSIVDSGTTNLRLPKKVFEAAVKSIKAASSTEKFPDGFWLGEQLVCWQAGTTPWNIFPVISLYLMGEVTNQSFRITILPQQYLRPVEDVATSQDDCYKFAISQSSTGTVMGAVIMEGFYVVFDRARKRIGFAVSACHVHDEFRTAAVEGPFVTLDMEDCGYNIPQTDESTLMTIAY
T1 sequence (P56817 other isoform, or with tags, fused parts or gaps limits assumed): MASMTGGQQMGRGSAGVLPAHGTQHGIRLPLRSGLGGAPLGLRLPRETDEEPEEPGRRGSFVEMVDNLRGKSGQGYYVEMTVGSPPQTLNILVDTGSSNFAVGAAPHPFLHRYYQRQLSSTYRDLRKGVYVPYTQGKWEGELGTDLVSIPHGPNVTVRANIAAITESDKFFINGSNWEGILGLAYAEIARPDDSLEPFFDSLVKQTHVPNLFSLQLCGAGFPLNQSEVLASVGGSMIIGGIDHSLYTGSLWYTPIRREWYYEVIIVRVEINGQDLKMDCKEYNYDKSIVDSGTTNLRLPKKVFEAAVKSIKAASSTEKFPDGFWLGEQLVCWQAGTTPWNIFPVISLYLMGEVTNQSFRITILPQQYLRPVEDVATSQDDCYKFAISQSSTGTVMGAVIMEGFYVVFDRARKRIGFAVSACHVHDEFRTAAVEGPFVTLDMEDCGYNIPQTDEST

For YPBFIPL-Alexa488 (peptide), the dissociation constant (Kd) in test [1] worked out at 100 nM.

Take YPYFIPB-Alexa488 (peptide): the Kd in test [1] was 100 nM.

Turning to Ac-HWPFFIRS-NH2 [BMS-655507 (Ac-His-Trp-Pro-Phe-Phe-Ile-Arg-Ser)], in [2], the Ka was 1.09e+06 M⁻¹. Further, in test [3], the Kd was 1640 nM, the Stoichiometry came to 0.86, the TΔS is -5.46 kcal/mol and the ΔG was -7.9 kcal/mol. Moreover, the ΔH in test [3] is -13.3 kcal/mol. In addition, the Ka in [4] came to 610000 M⁻¹. Also, in test [5], the Kd is 914 nM, the Stoichiometry came to 0.71, the TΔS is -9.81 kcal/mol and the ΔG was -8.23 kcal/mol. Also, in test [5], the ΔH is -18 kcal/mol.

Take Ac-ALYPYFLPISAK-NH2: in test [2], the Ka worked out at 8.86e+06 M⁻¹, the n (stoichiometry) is 1.06 and the ΔH was -11.8 kcal/mol. Also, in test [6], the dissociation constant (Kd) is 113 nM.

For the molecule YPYFIPL (not fully specified (N-terminus, C-terminus)) [Molecule Y3], the IC50, inhibition of the proteolytic activity of BACE (cleavage of MCA-…(-dnp)-COOH, HPLC) in test [7] turned out to be 731 nM. Further, the Kd in test [8] stood at 48 nM.

As to YPYFIPL (not fully specified (N-terminus, C-terminus)) [Molecule Y1 (YPYFIPL with C-terminal Alexa488)], the Kd amounted to 57 nM in test [8], 58 nM in test [9], 57.6 nM in [11] and 9.59 nM in test [12]. Further, in test [10], the fold enhancement of affinity in the presence of 10 µM OM99-2 turned out to be 5 fold.

With Ac-NLTTYPYFIPLP-NH2, in test [2], the Ka stood at 1.65e+07 M⁻¹. Also, the n (stoichiometry) in test [2] was 1.03. In addition, the figures for the ΔH in [2], in [13] and in test [16] were -12.9 kcal/mol, -15.9 kcal/mol and -15 kcal/mol, respectively. Also, the Kd in test [6] worked out at 61 nM; in test [13], 380 nM; in [14], 1070 nM; in test [15], 84 nM; in test [16], 280 nM; in test [18], 1070 nM. The Kd in test [19] was 84.2 nM. The Stoichiometry (mole:mole) in [13] is 0.93 mole:mole; in test [16], 0.96 mole:mole. For the same molecule, the T(dS) was -6.8 kcal/mol in test [13] and -5.7 kcal/mol in [16]. Further, the ΔG in test [13] is -9.1 kcal/mol; in test [16], -9.3 kcal/mol. The IC50 (read off the curve) in test [17] turned out to be 500 nM.

In the case of Ac-YPYFIPL-NH2, the Kd in [20] and in test [22] was 1200 nM throughout. Further, the IC50 (read off the curve) in [21] was 3000 nM.

Consider NLTTYPYFIPLP (also: Alexa488 label, position shown only) [Molecule X (… labeled with Alexa488)], for which the Kd in test [23] turned out to be 903 nM; in [24] it was 904 nM; in test [25], 139 nM; in [26] it was 1000 nM.

On to YPYFIPL (not fully specified (N-terminus, C-terminus)) [Molecule Y2], for which the Kd in test [8] came to 92 nM.

With YPYFIPL-Alexa488 [BMS-597041 (YPYFIPL-Alexa488 Fluorophore)], the binding result in [27] is listed as “binds”.

For the molecule YPYFIPL (not fully specified (N-terminus, C-terminus)) [Molecule Y4], the Kd in test [8] amounted to 62 nM.

As usually defined, the Kd is the equilibrium constant for the complex coming apart.
